Several values for one entry are separate records, joined by “and”; a condition that tells them apart may be missing. Equal entries are not always repeated.
Experiments:
[1] = substrate: CC[C@H](C)[C@H](NC(=O)[C@H](Cc1ccc(O)cc1)NC(=O)[C@@H]1CCCN1C(=O)[C@H](C)NC(=O)[C@H](CC(C)C)NC(=O)[C@H](CCSC)NC(=O)[C@H](CCC(=O)O)NC(=O)[C@H](CC(C)C)NC(=O)[C@H](CC(=O)O)NC(=O)[C@H](CC(C)C)NC(=O)[C@@H](N)CC(=O)O)C(=O)N1CCC[C@H]1C(=O)N[C@@H](CCSC)C(=O)N[C@@H](CC(=O)O)C(=O)N[C@@H](CC(=O)O)C(=O)N[C@@H](CC(=O)O)C(=O)N[C@@H](Cc1ccccc1)C(=O)N[C@@H](CCC(N)=O)C(=O)N[C@@H](CC(C)C)C(=O)O; experiment: purified protein, by the assay type; settings: pH 7.0, 37.0 °C
[2] = substrate: O=C(O)CCC(=O)C(=O)O; experiment: purified protein, by the assay type; settings: pH 7.0, 37.0 °C
[3] = molecular target: MBP-HA-PHD3 (full-length human prolyl hydroxylase domain protein 3) (human) (UniProt Q9H6Z9)
[4] = molecular target: MBP-HA-PHD3 (full-length human prolyl hydroxylase domain protein 3) (human) (UniProt Q9H6Z9); remark: listed apart in the source
[5] = other: PHD3, HIF-1α CODD substrate, This work (Table 2)

B1: PHD2_181-426 (Homo sapiens) (protein)
chain: PNGQTKPLPALKLALEYIVPCMNKHGICVVDDFLGKETGQQIGDEVRALHDTGKFTDGQLVSQKSDSSKDIRGDKITWIEGKEPGCETIGLLMSSMDDLIRHCNGKLGSYKINGRTKAMVACYPGNGTGYVRHVDNPNGDGRCVTCIYYLNKDWDAKVSGGILRIFPEGKAQFADIEPKFDRLLFFWSDRRNPHEVQPAYATRYAITVWYFDADERARAKVKYLTGEKGVRVELNKPSDSVGKDVF
Q: Which results are given for B1?
A: Km ([1]; other: increasing HIF-1α peptide (P564), saturating concentrations of all other reagents, 3 μM PHD2): 5.2 ± 0.9 µM and 5.192 ± 0.940 µM; Km ([2]; other: increasing α-ketoglutarate, 100 μM peptide substrate, 3 μM PHD2): 12.0 ± 3.0 µM and 11.970 ± 3.006 µM

B2: synthetic HIF-1α peptide encompassing the P564 residue (HIF-1α CODD, 19-mer) (peptide)
peptide: DLDLEMLAPYIPMDDDFQL
Q: Which Km (app; substrate) of PHD3 for the HIF-1α peptide, initial rates of α-ketoglutarate consumption in the 2,4-DNPH α-KG assay (10 μM PHD3, 37 °C, pH 7.0) [3] does the source give for B2 here?
A: 0.024 mM

B3: synthetic ACC2 peptide encompassing the P450 residue (peptide)
peptide: ERIGFPLMIKASEGGGGK
Q: Which Km of PHD3 for the ACC2 P450 peptide, initial rates of α-ketoglutarate consumption in the 2,4-DNPH α-KG assay (10 μM PHD3) [4] does the source give for B3 here?
A: 41.2 µM

B4: PHD3 (Homo sapiens) (protein)
chain: MPLGHIMRLDLEKIALEYIVPCLHEVGFCYLDNFLGEVVGDCVLERVKQLHCTGALRDGQLAGPRAGVSKRHLRGDQITWIGGNEEGCEAISFLLSLIDRLVLYCGSRLGKYYVKERSKAMVACYPGNGTGYVRHVDNPNGDGRCITCIYYLNKNWDAKLHGGILRIFPEGKSFIADVEPIFDRLLFFWSDRRNPHEVQPSYATRYAMTVWYFDAEERAEAKKKFRNLTRKTESALTED
Q: Which results are given for B4?
A: Km [1, 5]: 24.03 ± 5.964 µM; kcat [1, 5]: 0.06062 ± 0.00278 s⁻¹; kcat/Km [1, 5]: 2523 ± 466 M⁻¹ s⁻¹; Km ([1]; other: increasing HIF-1α peptide (P564), saturating concentrations of all other reagents, PHD3): 24.0 ± 6.0 µM; Km [2, 5]: 43.29 ± 7.295 µM; Km ([2]; other: increasing α-ketoglutarate, 100 μM peptide substrate, 10 μM PHD3): 43.3 ± 7.3 µM
